Target: β1 integrin (human (endogenous in EA.hy926), UniProt P05556 21-798)
Experiment: co-IP

Chain of β1 integrin (P05556 21-798): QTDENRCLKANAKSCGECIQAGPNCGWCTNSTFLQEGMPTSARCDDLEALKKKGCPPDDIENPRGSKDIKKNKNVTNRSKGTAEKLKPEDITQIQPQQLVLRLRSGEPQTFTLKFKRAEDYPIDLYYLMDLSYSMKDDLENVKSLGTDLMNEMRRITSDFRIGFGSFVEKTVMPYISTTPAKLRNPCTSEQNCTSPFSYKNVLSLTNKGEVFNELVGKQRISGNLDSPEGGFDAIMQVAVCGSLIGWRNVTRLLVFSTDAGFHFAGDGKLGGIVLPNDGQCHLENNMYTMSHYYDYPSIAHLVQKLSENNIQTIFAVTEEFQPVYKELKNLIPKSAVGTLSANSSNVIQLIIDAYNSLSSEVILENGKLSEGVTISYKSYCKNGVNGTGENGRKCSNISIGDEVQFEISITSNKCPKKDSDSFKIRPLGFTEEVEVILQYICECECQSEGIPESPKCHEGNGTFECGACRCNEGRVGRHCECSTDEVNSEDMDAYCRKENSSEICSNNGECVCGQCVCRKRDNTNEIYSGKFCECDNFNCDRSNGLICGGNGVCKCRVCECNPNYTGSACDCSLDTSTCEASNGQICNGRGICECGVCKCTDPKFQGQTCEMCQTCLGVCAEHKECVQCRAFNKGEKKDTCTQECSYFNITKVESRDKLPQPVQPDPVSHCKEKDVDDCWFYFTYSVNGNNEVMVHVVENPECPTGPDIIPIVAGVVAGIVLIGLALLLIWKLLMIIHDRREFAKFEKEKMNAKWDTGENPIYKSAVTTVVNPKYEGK

B1: cannabinoid 1 receptor (receptor, human (endogenous in EA.hy926), UniProt P21554 1-472, looked up)
chain: MKSILDGLADTTFRTITTDLLYVGSNDIQYEDIKGDMASKLGYFPQKFPLTSFRGSPFQEKMTAGDNPQLVPADQVNITEFYNKSLSSFKENEENIQCGENFMDIECFMVLNPSQQLAIAVLSLTLGTFTVLENLLVLCVILHSRSLRCRPSYHFIGSLAVADLLGSVIFVYSFIDFHVFHRKDSRNVFLFKLGGVTASFTASVGSLFLTAIDRYISIHRPLAYKRIVTRPKAVVAFCLMWTIAIVIAVLPLLGWNCEKLQSVCSDIFPHIDETYLMFWIGVTSVLLLFIVYAYMYILWKAHSHAVRMIQRGTQKSIIIHTSEDGKVQVTRPDQARMDIRLAKTLVLILVVLIICWGPLLAIMVYDVFGKMNKLIKTVFAFCSMLCLLNSTVNPIIYALRSKDLRHAFRSMFPSCEGTAQPLDNSMGDSDCLHKHANNAASVHRAAESCIKSTVKIAKVTMSVSTDTSAEAL
normalized CB1R ratio without versus with anandamide (2 mM Ca2+): 1.03 ± 0.04
